According to a protein production outcome set (Wang et al. 2014):

Test: label from the status in PepcDB records
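Note: failed if final PepcDB status was selected cloned or expressed and not failed if soluble or beyond.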

| Sequence | protein production |
| --- | --- |
| MPFHGDAQENTWPNSRASPMSLASKLPRFRWLLPAFVVLVGVVLTIVMHWDDRAGLWWKESQASQQQRDESIWLPGYRVVIDAKPLQGLEEEETSDLAYNPATRTLFTVTGKRPLLVELSLTGDVLRTIPLLGLSNPEGVAVLENGNVAVTDERRNTLTIFHVDPQTAELSTKSLAEFPLGNIGKKNKGFEGIAWDPRQQRLLLSKERDPMTLFSWKSDGGPSLSGAMTALPSDDLYMRNVSALSVDPRTGHTLVLSAESHLLLELDEKGEPVSFISLLGGFNGLDSKIPRAEGVAIDDEGTIYMVSEPNLFYVFRKKSGERLATSDADLEHHHHHH | failed |
| MIEEQGRVVATEPGAVWVETVRRSTCSSCSANAGCGQGLMQRLGVGAGRARVRALSDLSLRVGDAVVLGIHEDLLLRASVLFYLFPLLGFFVAALLATRAGLVEPLIIVSGLAGLLAAWLLVRRHARRHADDPASQPVVLRALISGPSDSA | failed |
| MGQIPPQPVRRVLPLMVVPGNGQKWRNRTETEEAMGDTYRDPVDHLRTTRPLAGESLIDVVHWPGYLLIVAGVVGGVGALAAFGTGHHAEGMTFGVVAIVVTVVGLAWLAFEHRRIRKIADRWYTEHPEVRRQRLAG | failed |
| MANADLDKQPDSVSSVLKVFGILQALGEEREIGITELSQRVMMSKSTVYRFLQTMKTLGYVAQEGESEKYSLTLKLFELGARALQNVDLIRSADIQMRELSRLTKETIHLGALDEDSIVYIHKIDSMYNLRMYSRIGRRNPLYSTAIGKVLLAWRDRDEVKQILEGVEYKRSTERTITSTEALLPVLDQVREQGYGEDNEEQEEGLRCIAVPVFDRFGVVIAGLSISFPTLRFSEERLQEYVAMLHTAARKISAQMGYHDYPF | not failed |
| MSAGEHAGGVFLGGIAIDEPTREAARAMVDRDREEFLPADPVAWVDDQLSELDDAFLRPAVNVRAVRLGPLRDVAAVCAAHDAILEVNAHCRQDELCDAGAGETLLRDTSRLCEQVRAASDEGAAVSVKVRAGVQGVHLPVLAQAIERAGAAAIHVDAMDSRRVVRDVADATALFVVANNGVRTRDDVFEYLSYGADAVSVGRPSRDPERVRAVYAAVKEWLL | failed |
| MARREICNKGVVAGVQYSHSHRQSKRTWAPNIKKVKAIVKGTPKTVHVCTRCLRSEKFKELYKKSLAKMQFNNCIFILHKNKGLEHHHHHH | not failed |
| MILLEGSYREMGRQYGGLMKTELLSEYAMLTKTLEDRGYSLDYLRWYASAGTQFQPERMKEITRGMAETTGLSEADLSILYYGPALYISMPAGCSYLAVWDTYTTDGSVVLSRNWDLPDLLDPFNPYYVLAVCRPTDGSNGVATFGPAGSRPETLMNSAGLFIADDNSGLAPVGQDDRPDLISEFFRLMLDYSDLDGLKTGVLTTRPDVAWIVDVGGPDGAYVFEVGLNETKVRIGDGVVAAANHFVDPSWDLTTPPGEHSLTRYANLLSQAEAAKGSIDAEEMMQIRDVLMTDDGATFRHSELFGYPYSSNHQVVFVPATRTLWMKVIDLDWQKVELAPLFAM | failed |
| MQAKSEAKLAIGVIGCGNISMTYLRNAALFGGIELRACADISADMAALRAKEYGIQALGVDALLSDPEIDLVLNLTIPAAHFDISLSALSAGKHVFTEKPLATSAGDGRRLVAEAAKRGVLLGSAPDTFLGAAGRRARRLMDEGAIGRPVTGTAFMMGRGMEHWHPNPQFYYQPGGGPVFDMGPYYLTMLVNLLGPVARVMAMATRGQEERLITAEGPFKNTTFKVGTPTNVLSLLEFRSGATVTFGASWDVFKHSNHPIELHGTEGSLRLPDPDTFGGTVSLSERGADWKDFAGEGELYGARNWPYAAPDRANYRMLGVADLVRSLKTGAVPRASGNLALHVLEIMEAILHSGETKSAVAIAGDVVQPALLTEDEANSLLA | failed |
| MLDANKLQQAVDQAYTQFHSLNGGQNADYIPFLANVPGQLAAVAIVTCDGNVYSAGDSDYRFALESISKVCTLALALEDVGPQAVQDKIGADPTGLPFNSVIALELHGGKPLSPLVNAGAIATTSLINAENVEQRWQRILHIQQQLAGEQVALSDEVNQSEQTTNFHNRAIAWLLYSAGYLYCDAMEACDVYTRQCSTLLNTIELATLGATLAAGGVNPLTHKRVLQADNVPYILAEMMMEGLYGRSGDWAYRVGLPGKSGVGGGILAVVPGVMGIAAFSPPLDEDGNSVRGQKMVASVAKQLGYNVFKG | not failed |
| MKYIIIGLGNYGGVLAEELSVLGHEVIGVDTNEHRVDVLKDKIATSFIIDATDEQSLSVLPLKDVDVVIVAIGENFGASVRVVALLKKKGVKHIYARAVDDVHKTVLEAFNLDSILTPEKEAARSLVQLLDLHVNVESFQIDEEHYVMKFKLPSCFVGYKVSDLSLETEFNIKIIALIKGEKVLNGLGISILEHQVENHFEENYELEEEDQLVCYGLYKNFMDFWKAL | failed |
| MANKQVFPTKGNLIATKKSNALAHMGYELMDRKRNILIREMMGLLDDVKLLRDEITQTYAEAYRALQLANMSLGVISAMAEAVPIDTGLHVSYRSVMGVEIPKLSYDKQEIKPTYGLERANSKLDYAYTCFQRVKEMSVVLAEVENNVYRLANAIRKSQKRANALKNIVIPEFEHNIKFITDALEEKEREEFSRQKVIKRNKDSQMQMERK | failed |
| MSSSPEKKRRKKLSPESNSLPNDLIVTILARLSQSYYPKLSLVSKTFRAILASPELYQTRILLSRTETFLYVCLSFPGEPNPGWFTLYRKPNQTLTTKKKKNSVHLLAPILNSPPVEFPSLIAVGSYLYAFRAAIEEGTSDSLNCVEVYNTDTQTWIPVPPNKRIFKLQHMKGMLYMKVSKLLSFVAQDAEELAPLFPKLRSLLSTEVVAFKPKVSEGYEVLGFSVNTDLGRGSFCMIEEITYHYDPSVKFRWRRRQGGVWRSLVGLEGLPKFARYSSVKLADCGGKLVVLWHKYVPASGYEEKMVWCAEISLEKRSKKEIWGKIEWFDAVLRVPKYYQFVGAKSATV | failed |
| MNQKMIIGNAEAICLPELGITHLEARIDTGAQTSSLHVDNIDCFEKDGQSYVAFDLHPDVYHLEQVVRCTAKLKANRKVKSSNGTFEHRCVITTMLRLGDQEWPIDITLTNREKMTYMMLLGRQGMADKVLVDPSQSHLLAS | not failed |
| MGNMISAVVAAAGRGSRMMRDMAELGLEPVHKLLLPLNGVTVIEATVKAVLSAGVDECIVVTGHRAGEVEEALSGMDVRVVRNDPVDVPLSASLLRGVRAAGGDIILCAAGDQPAVSPATLRRIAEHADGSTVSILARGESGWLDNARGIGMPLAAGADLLRDYLPLGDGNINPLLWMMLEDGVRLYGVEASRPIELVNINHYSDYLRIRDHFLRTNADGN | failed |
| MIFAFVFDRDYYSLGLVLLALFSAQSPYGGLSLEIYLKSCRIQQNYTRLNTMKLRLPHAPYVANKIALDLVSSGYIELGSNMEKISQIAKHFLEENIKKEAALEEKVRLLLEANLEEIEFLRVDERQFFWMAKKKLAEEEGFILAKDDRYSHLSHQILDELIKEEVIDFGVSDTIIKNVIFKAIDGYVKIYESIEDVVIEKIENYKRKIIAGTEEYDMVFEKLYEEELKKRGFL | failed |
| MKDPRDFVPEDLSDLETAMLEMAEKDIRKAYTITDKQERYAALDALKTEIINKFMPETEEDCKFSVDQIATVFKQLQAKIVRSNILDTKKRIDGRDLSTVRPIQSEVGILPRTHGSALFTRGETQAIVVATLGTGEDEQYIDSLTGLEHHHHHH | not failed |
| MPYTLQHLESEAALAASFDLMRVLRPHLTSPAAYVAQWARQTEQGYRLLAAWDAERIVGLAGYRELENLLYGRFIYVDDLVVSPDLQRSGLGARLLSAVRDEAVQRQCEHFVLDTGLHMPLAQRFYFRQGLLARGMHFTQRLE | failed |
| MTPATTTLVFTYGTLKRGFSNHVLMQDLIRSGDASFKGVYQTLDKYPLVCGPYRVPFLLNKPGSGYHVNGELYAVSPRGLSRLDELEGISRGHYIRQPIRLAAAEEEEEEEGDLETEAPSSCVVEAYYAHKSYEEELWRRNRGRSFGAYTENEARGYVKRNDRPQHLSFLDHIRIFVSSPCD | failed |
| DNYRTTGIATIEVFLPPRLKKDRKNLLETRLHITGRELRSKIAETFGLQENYIKIVINKKQLQLGKTLEEQGVAHNVKAMVLELKQS | not failed |
| MVKSFPKGKHRQRIRLWLGSLVLAALLVGGGLFSWYHWRSPSLKPLYTLTVEAPPQTLPELEQWAQSADLLKRDRARYLLAVESLSQRQPQVALQWLQNLEQTYRPMAAPILLLRAEAYRQQGDSRRAQETWEQLLRDYGSEPEAAIALLSLNQPQRAIARFPQHPAVVHYVAQQLEKNPDQVPYLKLVARYGLFLQGYGTYLEILRQRYADQLTPADWEAIAFGYWEKMQYAPAAEAYAKARPTPLNLYRVGRGRQLSGERTGAIAAYQALIQRFPNSSEAALAQLRLARLAKTAAERLPLLAKCLQLATENQAPAIAADALLEQYQAYRELGNTKGAQQSQQQLFKTYPQSSAAAELRWQLAQGAAQKRQWSQAQQWVREILKFNPESELAARAAFWQGKWQGEAGQPQAQRQTWQLVTERYPHTYYAWRAASLLQKPVGTFTTLRQQRPSVAGDRQPLLPLATGSPTLQELYLLRQFQEAWQRWQWEFQNRVTPTAAEQLTDGLIRLGVGEYLDGIFMLQNLFTRAAREPQVATFFAPIRRDLRFWYALYPLPYWELVKKWSLAHNLNPLLVMALIRQESRFEKDIRSVVGATGLMQLMPETAAWIAQQLNLEDYSLVDPEHNIRLGTWYFDYTHNQYNQNTLLALASYNAGPGNVSQWLERFDIGDSDRFVESIPFPETYGYVKSVLENYWNYWQLYAQP | failed |
| MIGITGVTGKLGSKVAQLISEQGISARHLARNPQRAALYDNAELVQVAFENSLEAVEALKGIDVLLMVSASESPNRLQQHFAFLDAAHEAGVKHIVYTSFYNAATEATFTLARDHAKTEKYIKERGFTYTFLRDNFYLDFFLDLCLNNGEIRGPAGNGKVSAVARQDVSEVATTILAKPDKWKNQLLNMTGPADLSMADIVHFVSEQKGEIIPYIDESIEEAYASRKAWPAQDWEYDAWVSTYTAIKEGKQAGVSSDIERVLGRPATSLEQLVKTIK | failed |
| MSDTPYSLKGPARPTASTRNGKGRQDARWAERRREAAIAKLKAELAAQAALIAGQEVALAHSRKIFDRASVAARIGVWECSLPGEQLHWTDVVYDLFDLPRGAALDRSEIIKCYPAESRKALDSLRSRAIAERSGFTLDAEITTFAGHSRWIRITATVECEADVPVRIFGMKQDITEEKILSDRMRYLAEFDPMTGLANRARFQARLAQPDASRPLGALLLIDLDGFKAVNDTFGHVVGDECLKAAAERLAEGCGEADLVARVGGDEFAVLLGSHLDRAAVSGVAREIIEGMGKPVVVRGQSLRLGASVGIAFAGQGAPCDLFAQADTALYAAKAAGRNTFRIFKAEAGGKDRSAAA | failed |
| MIVCKNRIGTMKRLGRISLRVLLLAGVLLSLLLMAMTLLYPPVEKGGLFFMLAIEVALLFFLGFLYNKVVLPIRAVGDGMDMLRSQDYATTLAPVGQPDADRVVELYNALMHSLKKERLRLEERDNFLSLVMDVSPVGFVVLDFDMRVVSVNPAARRLLDLPDDYIPIERPLEEVCAKIPFGPDELGEGESRTWRLPTAEVRRITRMRFFDRSFSRLFFSIETLTEELHSAEKEAYEKLIRLIAHEVNNSTAGIIGVLNAVGDAFDDTPHTPEGEVSEAIALCRDRCMAMSRFITRFAEVVKLPDPTLSSVDLVPLCERCILLMQPLAVETGVKMKMCKEQDSCLVRCDAEQIEQVVINLLRNAIESFAQQNDLAVSATKTVLLCLDRHNLLVEDNGQPISDDVATRLFTPFFSTKPNGQGIGLVVIREVLTRHGWSFSLTTDADGRTRFRMAWP | failed |
